Target: human IgG (human)
Test: BLI (Octet), gEgI on Ni-NTA sensor, hIgG in solution

| Substance | Kd [nM] | Response [nm] | koff [s⁻¹] | kon [M⁻¹ s⁻¹] |
| --- | --- | --- | --- | --- |
| HSV2-gE_P317F V340W_gI (from UniProt P89475 21-416; P06764 21-256) (receptor) | 577 | 0.116 | 0.00414 | 7170 |
| HSV2-gE_P317K S338G_gI (from UniProt P89475 21-416; P06764 21-256) (receptor) | 238 | 0.198 | 0.00167 | 7030 |
| HSV2-gE_P317K S338H_gI (from UniProt P89475 21-416; P06764 21-256) (receptor) | 338 | 0.146 | 0.00195 | 5780 |
| HSV2-gE_P317K S338L_gI (from UniProt P89475 21-416; P06764 21-256) (receptor) | 252 | 0.334 | 0.0016 | 6350 |
| HSV2-gE_P317K V340M_gI (from UniProt P89475 21-416; P06764 21-256) (receptor) | 297 | 0.238 | 0.00199 | 6690 |
| HSV2-gE_P317K V340R_gI (from UniProt P89475 21-416; P06764 21-256) (receptor) | 241 | 0.508 | 0.00163 | 6740 |
| HSV2-gE_P317K V340W_gI (from UniProt P89475 21-416; P06764 21-256) (receptor) | 517 | 0.111 | 0.00348 | 6740 |
| HSV2-gE_P317S S338G_gI (from UniProt P89475 21-416; P06764 21-256) (receptor) | 302 | 0.595 | 0.00453 | 15000 |
| HSV2-gE_P317S S338H_gI (from UniProt P89475 21-416; P06764 21-256) (receptor) | 154 | 0.516 | 0.0021 | 13600 |
| HSV2-gE_P317S S338L_gI (from UniProt P89475 21-416; P06764 21-256) (receptor) | 167 | 0.549 | 0.00163 | 9770 |
| HSV2-gE_P317S V340M_gI (from UniProt P89475 21-416; P06764 21-256) (receptor) | 269 | 0.623 | 0.0039 | 14500 |
| HSV2-gE_P317S V340R_gI (from UniProt P89475 21-416; P06764 21-256) (receptor) | 277 | 0.403 | 0.00191 | 6890 |
| HSV2-gE_P317S V340W_gI (from UniProt P89475 21-416; P06764 21-256) (receptor) | 351 | 0.131 | 0.00282 | 8050 |
| HSV2-gE_P318D S338G_gI (from UniProt P89475 21-416; P06764 21-256) (receptor) | 330 | 0.143 | 0.00256 | 7750 |
| HSV2-gE_P318D S338H_gI (from UniProt P89475 21-416; P06764 21-256) (receptor) | 280 | 0.18 | 0.00215 | 7690 |
| HSV2-gE_P318D S338L_gI (from UniProt P89475 21-416; P06764 21-256) (receptor) | 163 | 0.303 | 0.00107 | 6560 |
| HSV2-gE_P318I S338G_gI (from UniProt P89475 21-416; P06764 21-256) (receptor) | 335 | 0.237 | 0.00297 | 8870 |
| HSV2-gE_P318I S338H_gI (from UniProt P89475 21-416; P06764 21-256) (receptor) | 286 | 0.252 | 0.0025 | 8740 |
| HSV2-gE_P318I S338L_gI (from UniProt P89475 21-416; P06764 21-256) (receptor) | 152 | 0.411 | 0.00124 | 8130 |
| HSV2-gE_P318R S338H_gI (from UniProt P89475 21-416; P06764 21-256) (receptor) | 5.32 | 0.192 | 4.28e-05 | 8050 |
| HSV2-gE_P318R S338L_gI (from UniProt P89475 21-416; P06764 21-256) (receptor) | 176 | 0.49 | 0.00138 | 7870 |
| HSV2-gE_P319G V340M_gI (from UniProt P89475 21-416; P06764 21-256) (receptor) | 297 | 0.393 | 0.00393 | 13200 |
| HSV2-gE_P319G V340R_gI (from UniProt P89475 21-416; P06764 21-256) (receptor) | 197 | 0.287 | 0.00137 | 6960 |
| HSV2-gE_P319G V340W_gI (from UniProt P89475 21-416; P06764 21-256) (receptor) | 385 | 0.106 | 0.00249 | 6460 |

| Substance | Kd [nM] | Response [nm] | koff [s⁻¹] | kon [M⁻¹ s⁻¹] |
| --- | --- | --- | --- | --- |
| HSV2-gE_P319L V340M_gI (from UniProt P89475 21-416; P06764 21-256) (receptor) | 222 | 0.336 | 0.00216 | 9750 |
| HSV2-gE_P319L V340R_gI (from UniProt P89475 21-416; P06764 21-256) (receptor) | 160 | 0.509 | 0.00141 | 8770 |
| HSV2-gE_P319L V340W_gI (from UniProt P89475 21-416; P06764 21-256) (receptor) | 230 | 0.139 | 0.00217 | 9450 |
| HSV2-gE_R314G F322A_gI (from UniProt P89475 21-416; P06764 21-256) (receptor) | 232 | 0.469 | 0.00328 | 14200 |
| HSV2-gE_R314G F322I_gI (from UniProt P89475 21-416; P06764 21-256) (receptor) | 272 | 0.291 | 0.00262 | 9620 |
| HSV2-gE_R314G F322P_gI (from UniProt P89475 21-416; P06764 21-256) (receptor) | 181 | 0.439 | 0.00209 | 11500 |
| HSV2-gE_R314G P318D_gI (from UniProt P89475 21-416; P06764 21-256) (receptor) | 369 | 0.122 | 0.0033 | 8930 |
| HSV2-gE_R314G P318I_gI (from UniProt P89475 21-416; P06764 21-256) (receptor) | 449 | 0.153 | 0.00278 | 6200 |
| HSV2-gE_R314G P318R_gI (from UniProt P89475 21-416; P06764 21-256) (receptor) | 148 | 0.22 | 0.000833 | 5640 |
| HSV2-gE_R314G V340M_gI (from UniProt P89475 21-416; P06764 21-256) (receptor) | 390 | 0.466 | 0.00401 | 10300 |
| HSV2-gE_R314G V340R_gI (from UniProt P89475 21-416; P06764 21-256) (receptor) | 394 | 0.439 | 0.00245 | 6230 |
| HSV2-gE_R314G V340W_gI (from UniProt P89475 21-416; P06764 21-256) (receptor) | 1010 | 0.144 | 0.00543 | 5400 |
| HSV2-gE_R314L F322A_gI (from UniProt P89475 21-416; P06764 21-256) (receptor) | 303 | 0.603 | 0.00385 | 12700 |
| HSV2-gE_R314L F322I_gI (from UniProt P89475 21-416; P06764 21-256) (receptor) | 274 | 0.433 | 0.00277 | 10100 |
| HSV2-gE_R314L F322P_gI (from UniProt P89475 21-416; P06764 21-256) (receptor) | 210 | 0.607 | 0.00255 | 12100 |
| HSV2-gE_R314L P318D_gI (from UniProt P89475 21-416; P06764 21-256) (receptor) | < 0.001 | 0.134 | < 1e-07 | 7900 |
| HSV2-gE_R314L P318I_gI (from UniProt P89475 21-416; P06764 21-256) (receptor) | 261 | 0.294 | 0.00198 | 7580 |
| HSV2-gE_R314L P318R_gI (from UniProt P89475 21-416; P06764 21-256) (receptor) | < 0.001 | 0.202 | < 1e-07 | 8050 |
| HSV2-gE_R314L V340M_gI (from UniProt P89475 21-416; P06764 21-256) (receptor) | 452 | 0.427 | 0.00456 | 10100 |
| HSV2-gE_R314L V340R_gI (from UniProt P89475 21-416; P06764 21-256) (receptor) | 615 | 0.284 | 0.00307 | 4990 |
| HSV2-gE_R314L V340W_gI (from UniProt P89475 21-416; P06764 21-256) (receptor) | 914 | 0.148 | 0.00524 | 5740 |
| HSV2-gE_R314P F322A_gI (from UniProt P89475 21-416; P06764 21-256) (receptor) | 247 | 0.655 | 0.00423 | 17100 |
| HSV2-gE_R314P F322I_gI (from UniProt P89475 21-416; P06764 21-256) (receptor) | 300 | 0.389 | 0.0036 | 12000 |

Source: patent US20220273789A1
